Patent US5866680
Where two headings read alike, the source gives them in different places.

How the values were obtained:
[1] = biological target: A/B".1A pentamer mutant 1-142 L44V,V45A,S46L,R47K,S48T (Homo sapiens) (UniProt P09012); assay: EMSA
[2] = biological target: U1 snRNP-A 1-142 (Homo sapiens) (UniProt P09012); assay: EMSA
[3] = biological target: U2 snRNP-B" 1-109 (Homo sapiens) (UniProt P08579); assay: EMSA
[4] = test system: U2 snRNP-B" + U2 snRNP-A' (Homo sapiens); assay: pulldown; settings: A' stimulates B" binding to U2 about 100-fold
[5] = legend says full-length U2, text says U2 stem-loop IV

Chain of UniProt P08579 (P08579 1-109): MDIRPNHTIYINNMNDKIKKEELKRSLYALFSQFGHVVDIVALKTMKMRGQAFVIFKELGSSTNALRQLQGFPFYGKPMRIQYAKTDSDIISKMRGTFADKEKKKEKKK

| Substance | Kd [1] | Kd ([2]; earlier estimate 80 nM quoted, 10 mM MgCl2, 150 mM NaCl) | Kd [3] | binding signal [4] | Kd [1, 5] | Kd [2, 5] | Kd [3, 5] |
| --- | --- | --- | --- | --- | --- | --- | --- |
| U1SL2 (U1 stem-loop II) | 70 nM | 30 nM | 800 nM |  |  |  |  |
| human U2 RNA |  |  |  | 100 fold | 900 nM | > 10000 nM | 400 nM |
